Measured values reported in patent publication US9823254B2, “Reversible chemoenzymatic labeling of native and fusion carrier protein motifs” (The Regents of the University of California, priority 2012, dated 2017).
Where “and” joins values, the source holds several entries; their conditions need not be identical. Identical values can stand only once.

How the values were obtained:
P. agglomerans AdmA = experiment: AcpH qualitative CP activity, gel-based, crypto-CP; type: biochemical; details: NRPS; crypto-CP (coumarin-PPant), overnight, 37° C., 1 μM AcpH
A. parasiticus PksA = target: T1, A. parasiticus PksA (Aspergillus parasiticus, UniProt Q12053); experiment: AcpH qualitative CP activity, gel-based, crypto-CP; type: biochemical; details: PKS; crypto-CP (coumarin-PPant), overnight, 37° C., 1 μM AcpH
T1 construct: made in house

S. coelicolor ActACP = target: T2, S. coelicolor ActACP (Streptomyces coelicolor, UniProt Q02054); experiment: AcpH qualitative CP activity, gel-based, crypto-CP; type: biochemical; details: PKS; crypto-CP (coumarin-PPant), overnight, 37° C., 1 μM AcpH
T2 construct: made in house
T2 sequence (Q02054 whole entry, looked up): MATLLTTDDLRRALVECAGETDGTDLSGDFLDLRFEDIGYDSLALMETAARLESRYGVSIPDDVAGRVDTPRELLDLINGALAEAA

L majuscula JamC = target: T3, L majuscula JamC (Moorena producens, UniProt Q6E7K7); experiment: AcpH qualitative CP activity, gel-based, crypto-CP; type: biochemical; details: PKS; crypto-CP (coumarin-PPant), overnight, 37° C., 1 μM AcpH
T3 construct: made in house

G. fujikuroi Pks4 = experiment: AcpH qualitative CP activity, gel-based, crypto-CP; type: biochemical; details: PKS; crypto-CP (coumarin-PPant), overnight, 37° C., 1 μM AcpH
P. syringae SyrB1 = P. syringae SyrB1 (Pseudomonas syringae pv. syringae, UniProt Q52400); experiment: AcpH qualitative CP activity, gel-based, crypto-CP; type: biochemical; details: NRPS; crypto-CP (coumarin-PPant), overnight, 37° C., 1 μM AcpH
M. tuberculosis AcpM = M. tuberculosis AcpM (Mycobacterium tuberculosis, UniProt P9WQF3); details: FAS; crypto-CP (coumarin-PPant), overnight, 37° C., 1 μM AcpH
P. falciparum ACP = experiment: AcpH qualitative CP activity, gel-based, crypto-CP; type: biochemical; details: FAS; crypto-CP (coumarin-PPant), overnight, 37° C., 1 μM AcpH
V. cholerae VibB = target: T4, V. cholerae VibB (Vibrio cholerae serotype O1, UniProt P0C6D3); details: NRPS; crypto-CP (coumarin-PPant), overnight, 37° C., 1 μM AcpH
T4 sequence (P0C6D3 whole entry, looked up): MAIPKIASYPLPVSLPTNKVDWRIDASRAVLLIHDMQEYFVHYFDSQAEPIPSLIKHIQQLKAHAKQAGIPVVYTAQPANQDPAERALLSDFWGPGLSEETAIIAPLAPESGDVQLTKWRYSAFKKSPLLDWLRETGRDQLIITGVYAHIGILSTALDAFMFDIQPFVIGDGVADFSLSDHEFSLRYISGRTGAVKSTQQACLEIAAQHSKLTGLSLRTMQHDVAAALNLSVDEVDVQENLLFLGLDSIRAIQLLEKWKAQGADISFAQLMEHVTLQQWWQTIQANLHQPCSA

YbbR13 = experiment: AcpH activity with modified ybbR peptide, qualitative; type: biochemical; details: for AcpH activity with modified ybbR peptide: coumarin-PPant labeled
holo-ACP (E. coli) = holo-ACP (E. coli) (Escherichia coli, UniProt P0A6A8); details: 37° C., HPLC detection, [AcpH] 1 (CyAcpH 0.005) μm
Experimental: Holo-E. coli AcpP was prepared as a serial dilution in 50 mM TrisCl, 250 mM NaCl, 30 mM MgCl2, and 2 mM MnCl2. […] CyAcpH was prepared at 10 nM in the same AcpH buffer. […] Reactions were transferred to prewarmed shaker at 37° C. and were quenched with 100 mM EDTA after 10 minutes. Samples were centrifuged and evaluated at 210 nm with HPLC using an acetonitrile gradient to determine apo-AcpP product formation. Michaelis-Menten kinetics were calculated using GraphPad Prism (GraphPad Software, La Jolla, Calif.).
E. coli holo-ACP was diluted into 50 mM TrisCl pH 8.0, 250 mM NaCl, 10% glycerol, 30 mM MgCl2 and 2 mM MnCl2 buffer to a concentration of 800 μM. […] AcpH was diluted from MOPS lysis buffer into 50 mM TrisCl pH 8.0, 250 mM NaCl, 10% glycerol and added to an equal volume of the holo-ACP serial dilution to initiate the reaction. Reaction tubes were transferred to a pre-warmed rack at 37° C. and shaken for the duration of the experiment. […] All samples were frozen at -80° C. until evaluated by HPLC.
Kinetics samples were mixed briefly with finger flicking, and centrifuged at 13000 rpm for 10 minutes at room temperature prior to transferring contents into HPLC vials. 20 μL of each reaction time point was injected on an Agilent 1100 series HPLC with column (Burdick & Jackson OD5 #9575, 25 cm×4.6 mm ID) using an acetonitrile/water gradient. Both water and acetonitrile contained 0.05% TFA. Method gradient for each injection: 0-5 min with 10% acetonitrile, 5-30 min with 10-100% acetonitrile, 30-35 min with 100% acetonitrile, 35-37 min with 100-10% acetonitrile, 37-40 min with 10% acetonitrile. HPLC-grade solvents (J. T. Baker, Phillipsburg, N.J.) were used exclusively. Apo- & holo-ACP protein standards were used to validate the retention times identified using 210 nm UV light at approximately 21 and 19 minutes, respectively. Peak integration was performed for all samples, and substrate turnover was calculated from the ratio of apo- to holo-ACP present in the HPLC trace and the known concentration of total ACP in reaction samples. Calculated rates for AcpH versus substrate concentration were obtained through Excel data analysis and graphed in Prism GraphPad using the “Michaelis-Menten” function for enzyme kinetics, with a zero data point added for substrate concentration of 0 μM*min-1 and 0 μM substrate for AcpH graphs.

P. aeruginosa AcpP = P. aeruginosa AcpP (Pseudomonas aeruginosa, UniProt O54439); details: FAS; crypto-CP (coumarin-PPant), overnight, 37° C., 1 μM AcpH
Experimental: (§1) Unless otherwise noted, all coumarin-PPant labeling proceeded as follows: apo-carrier protein or peptide at 50-200 μM were labeled in 50 mM Na-HEPES pH 7.5, 10 mM MgCl2, 8 mM ATP, 0.1 μM MBP-CoaA/D/E, 0.1 μM native Sfp, and 1.1 equivalents of coumarin-pantetheine at 37° C. overnight. Crypto-protein samples were repurified using standard IMAC techniques in pH 8 lysis buffer with Ni-NTA resin, and spin-concentrated/buffer exchanged to remove imidazole and concentrate with 0.5 mL 3 kDa MWCO cellulose filters. Crypto-peptide samples were purified with HPLC, lyophilized, and redissolved in 50 mM TrisCl pH 8.0 prior to analysis.
(§2) Following AcpH treatment, an equal volume of 2×SDS-PAGE loading dye was added to crypto-carrier proteins samples and heated 5 min at 90° C., and run on 12% or 15% SDS-PAGE. Gels were fixed in 50/40/10% water/methanol/acetic acid for 30 minutes, and washed with water three times before UV imaging. Holo-carrier protein reactions were analyzed with Urea-PAGE as previously described.^6 All protein gels were Coomassie stained for evaluating total protein. Crypto-peptides were evaluated on Urea-PAGE, and were imaged immediately after running with no gel fixing.

E. coli AcpP = E. coli AcpP (Escherichia coli, UniProt P0A6A8); details: FAS; crypto-CP (coumarin-PPant), overnight, 37° C., 1 μM AcpH
Experimental: as §1, §2

crypto-FITC-YbbR (3) = target: T5, crypto-FITC-YbbR (3) (Bacillus subtilis, UniProt O34659); experiment: FRET-quench microwell AcpH kinetics; type: biochemical; details: 37° C., FRET-quench microwell plate assay, [AcpH] 1 μm
T5 construct: made in house; host or cells: enzymatic labelling of FITC-ybbR peptide with Sfp and rhodamine-CoA
T5 sequence (O34659 whole entry, looked up): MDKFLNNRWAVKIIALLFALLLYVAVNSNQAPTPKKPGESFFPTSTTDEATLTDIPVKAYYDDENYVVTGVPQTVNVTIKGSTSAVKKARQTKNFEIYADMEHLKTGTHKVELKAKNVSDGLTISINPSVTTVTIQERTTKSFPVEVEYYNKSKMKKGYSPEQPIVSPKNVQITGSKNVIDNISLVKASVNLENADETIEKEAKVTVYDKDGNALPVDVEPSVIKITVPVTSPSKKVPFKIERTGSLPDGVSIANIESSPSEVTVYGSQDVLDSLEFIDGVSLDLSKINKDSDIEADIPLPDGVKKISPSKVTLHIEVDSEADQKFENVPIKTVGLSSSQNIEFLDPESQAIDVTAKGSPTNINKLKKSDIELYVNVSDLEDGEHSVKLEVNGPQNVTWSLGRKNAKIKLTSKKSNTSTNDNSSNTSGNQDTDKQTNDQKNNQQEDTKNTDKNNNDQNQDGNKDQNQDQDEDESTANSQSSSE
Experimental: Preparation of rhodamine-labeled FITC-ybbR proceeded via reaction of 200 μM FITC-ybbR with 200 μM rhodamine WT-CoA synthesized as described previously^33 with 1 μM Sfp in 50 mM HEPES pH 7.5 and 10 mM MgCl2 for 2 hours at 37° C.
Rhodamine-labeled FITC-Ybbr as well as standard 1:1 apo-FITC-ybbR:rhodamine-CoA was subjected to an 11-point serial dilution in 50 mM TrisCl pH 8.0 to achieve final concentrations of 400-0.4 μM. […] Total reaction volumes were 50 μL and utilized a 96-well Costar 3694 plate (Corning, Lowell, Mass.). Following mixing, reactions were centrifuged for 2 minutes at 1500 rpm, and incubated at 37° C. over 4 hours in a HTS 7000 plus Bioassay Reader (Perkin Elmer, Waltham, Mass.) in kinetic mode. Comparison of enzyme reactions to buffer blank and 1:1 apo-FITC-ybbR:rhodamine-CoA standard allowed calculation of product formation and determination of Michaelis-Menten kinetics using GraphPad Prism.

P. agglomerans AdmI = experiment: AcpH qualitative CP activity, gel-based, crypto-CP; type: biochemical; details: PKS; crypto-CP (coumarin-PPant), overnight, 37° C., 1 μM AcpH
M. tuberculosis MAS = experiment: AcpH qualitative CP activity, gel-based, crypto-CP; type: biochemical; details: FAS (FAS/PKS hybrid), overnight, 37° C., 1 μM AcpH
S. oneidensis AcpP = experiment: AcpH qualitative CP activity, holo-SoAcpP, Urea-PAGE; type: biochemical; details: FAS, Urea-PAGE gel-shift, shorter timescale
A. orientalis CepK = experiment: AcpH qualitative CP activity, gel-based, crypto-CP; type: biochemical; details: NRPS; crypto-CP (coumarin-PPant), overnight, 37° C., 1 μM AcpH
L majuscula JamF = experiment: AcpH qualitative CP activity, gel-based, crypto-CP; type: biochemical; details: PKS; crypto-CP (coumarin-PPant), overnight, 37° C., 1 μM AcpH
P. fluorescens PltL = experiment: AcpH qualitative CP activity, gel-based, crypto-CP; type: biochemical; details: NRPS; crypto-CP (coumarin-PPant), overnight, 37° C., 1 μM AcpH
ybbR = target: T6, ybbR (Bacillus subtilis, UniProt O34659); details: Sfp for ybbR; cited from earlier work
T6 sequence (O34659 whole entry, looked up): T5 sequence (O34659 whole entry, looked up)

apo-E. coli AcpP = apo-E. coli AcpP (Escherichia coli, UniProt P0A6A8); details: Sfp for apo-E. coli AcpP; cited from earlier work

B1: CyAcpH: acyl carrier protein hydrolase homolog from Cyanothece PCC 7822, YP13 003888700.1 (protein)
chain: MNYLAHLFLADPTPESQIGNLLGDFVKGKIDNLSSIYSPEIIRGVKTHQKIDIFTDHHPIFKTSKQRLNQNHRKFAGVIIDIYYDHFLAKNWLIYSEQDLDEFVANTYQMLEQHQLLLPEKLQKALPCMIQEDWLGSYRYFEGIDQTFSRLSRRIKRTNNIAFALEDLIQNYSQLEEDFLQFFPQLIDYVNLA
modifications: Cyanothece sp. PCC 7822
- AcpH qualitative CP activity (P. agglomerans AdmA): no
- AcpH qualitative CP activity (A. parasiticus PksA): YES
- AcpH qualitative CP activity (S. coelicolor ActACP): no
- AcpH qualitative CP activity (L majuscula JamC): YES
- AcpH qualitative CP activity (G. fujikuroi Pks4): no
- AcpH qualitative CP activity (P. syringae SyrB1): no
- AcpH qualitative CP activity (M. tuberculosis AcpM): YES
- AcpH qualitative CP activity (P. falciparum ACP): YES
- AcpH qualitative CP activity (V. cholerae VibB): no
- qualitative activity for all ybbR constructs (YbbR13; Coumarin-PPant conjugated to all ybbR variations, Urea-PAGE): qualitative activity
- AcpH activity with modified ybbR peptide (YbbR13; YbbR13: N-term 6xHis, C-term GFP): YES
- AcpH activity with modified ybbR peptide (YbbR13; YbbR13: N-term FITC, C-term N/A): YES
- AcpH activity with modified ybbR peptide (YbbR13; YbbR13: N-term GFP, C-term 6xHis): YES
- AcpH activity with modified ybbR peptide (YbbR13; YbbR13 free peptide: N-term N/A, C-term N/A): YES
- Km (holo-ACP (E. coli)): 58 ± 9 µM
- Vmax (holo-ACP (E. coli)): 1.1 ± 0.1 min⁻¹
- kcat (holo-ACP (E. coli)): 3.52 s⁻¹ and 3.52 ± 0.183 s⁻¹
- AcpH qualitative CP activity (P. aeruginosa AcpP): YES
- AcpH qualitative CP activity (E. coli AcpP): YES
- Km (crypto-FITC-YbbR (3)): 21 µM
- Vmax (crypto-FITC-YbbR (3)): 0.004 ± 0.004 min⁻¹
- kcat (crypto-FITC-YbbR (3)): 6.7e-05 ± 6.7e-05 s⁻¹
- AcpH qualitative CP activity (P. agglomerans AdmI): no
- AcpH qualitative CP activity (M. tuberculosis MAS): no
- AcpH qualitative CP activity (S. oneidensis AcpP): YES^†
- AcpH qualitative CP activity (A. orientalis CepK): no
- AcpH qualitative CP activity (L majuscula JamF): no
- AcpH qualitative CP activity (P. fluorescens PltL): no

B2: Sfp: phosphopantetheinyl transferase (PPTase) from Bacillus subtilis (protein, UniProt P39135 1-224, looked up)
4'-phosphopantetheinyl …: MKIYGIYMDRPLSQEENERFMSFISPEKREKCRRFYHKEDAHRTLLGDVLVRSVISRQYQLDKSDIRFSTQEYGKPCIPDLPDAHFNISHSGRWVICAFDSQPIGIDIEKTKPISLEIAKRFFSKTEYSDLLAKDKDEQTDYFYHLWSMKESFIKQEGKGLSLPLDSFSVRLHQDGQVSIELPDSHSPCYIKTYEVDPGYKMAVCAAHPDFPEDITMVSYEELL
- kcat (ybbR): 11
- kcat (apo-E. coli AcpP): 0.0967 s⁻¹
